In article PMC6675082:

Biological target: NpDps4 (Dps4 from Nostoc punctiforme ATCC 29133) (Nostoc punctiforme ATCC 29133)
Experiment: crystal structure; sitting-drop vapour diffusion, 25% SOKALAN HP 66, 0.1 M HEPES pH 7.0, 0.2 M NaOAc, room temperature; metal-free, Fe2+-soaked and Zn2+-soaked crystals; four molecules in the asymmetric unit, a third of the dodecameric hollow sphere

stoichiometry N: 12
Substance: NpDps4 (Dps4 from Nostoc punctiforme ATCC 29133) (natural protein)
